# B1: E. coli FabH (Escherichia coli K-12) (protein)
# chain: MYTKIIGTGSYLPEQVRTNADLEKMVDTSDEWIVTRTGIRERHIAAPNETVSTMGFEAATRAIEMAGIEKDQIGLIVVATTSATHAFPSAACQIQSMLGIKGCPAFDVAAACAGFTYALSVADQYVKSGAVKYALVVGSDVLARTCDPTDRGTIIIFGDGAGAAVLAASEEPGIISTHLHADGSYGELLTLPNADRVNPENSIHLTMAGNEVFKVAVTELAHIVDETLAANNLDRSQLDWLVPHQANLRIISATAKKLGMSMDNVVVTLDRHGNTSAASVPCALDEAVRDGRIKPGQLVLLEAFGGGFTWGSALVRF
# Substrate: CC(=O)SCCNC(=O)CCNC(=O)[C@H](O)C(C)(C)COP(=O)(O)OP(=O)(O)OC[C@H]1O[C@@H](n2cnc3c(N)ncnc32)[C@H](O)[C@@H]1OP(=O)(O)O
# Assay: purified protein, by the assay type
# Details: other: substrate of FabH; ping-pong mechanism, acetyl-CoA first substrate, malonyl-ACP second
protein,measurement,value
B1,Km,34 µM

# From patent publication US20040087506A1, “Methods of modulating FabH activity” (SmithKline Beecham Corporation, priority 1999, published 2004)
